Laboratory results reported in the DeepSol protein solubility set.

assay: soluble on expression in E. coli; label from the status in PepcDB or PDB records

Sequence	soluble on expression in E. coli
MSLSHSEAGQAASVRRVLAVIPARGGSKGVPAKNLLPVGGVPLVARAVRECRATRLVTDVVVSTDDHAIAAAAREAGAEVVLRPAAIAGDTATSEAAVLHAMDTHEALHGAAVDVVLLVQCTSPFIVREDVDGVVHAIVGKGADTALTVAPFHGFVWRDADDAPGALGAERAAVEGGTDTLVTGTATSGGYGINHDKSFRPRRQDRPQDLLETGAVYGMDATGFREARHRFFGRTELVRTDPARVLEIDDPHDLARARALAPLFDANRPGALPTAEDIDAVVLDFDGTQTDDRVLIDSDGREFVSVHRGDGLGIAALRKSGLTMLILSTEQNPVVAARARKLKIPVLHGIDRKDLALKQWCEEQGIAPERVLYVGNDVNDLPCFALVGWPVAVASAHDVVRGAARAVTTVPGGDGAIREIASWILGPSLDSLDKEGHHHHHH	soluble
MSLSIAKNIENDPSKGWVVQKFGGTSVGKFPIKIAVDVAKEYLSTKRVALVCSARSTDTKAEGTTTRLIRATEAALRPAVGSVHDLVRIIETDHVQAARDFIQDVGIQDELIDAFHADCVELEQYLNAIRVLSEVSPRTRDLVIGMGERLSCRFMAAVLKDQGIDSEFIDMSHIIDEQREWRNLDASFYAYLASQLASKVTAVGNKVPVVTGFFGMVPGGLLSQIGRGYTDFCAALLAVGLNADELQIWKEVDGIFTADPRKVPTARLLPLITPEEAAELTYYGSEVIHPFTMSQVVHARIPIRIKNVGNPRGKGTVIFPDTISRHGSATPPHPPKIMPDDISASLANKGATAVTIKDTIMVINIQSNRKISAHGFLASIFAILDKYKLAVDLITTSEVHVSMALYEESDDGNMHEAFVELRRLGTLDILHGLAILSLVGKHMRNTTGYAGRMFCKLAEAQINIEMISQGASEINISCVIDEKMAVKALNVIHKELLEPLALHEVPSQASMLVEKPWLYSAEGHHHHHH	soluble
MSLSIFEHFQARYEAAKDEELSIQDFLALCKENKSAYANAAERLLLAIGEPEMIDTSKHSRLSRIFSNRVIARYKTFEDFYGMEEAIEQIVAYLKHAAQGLEERKQILYLLGPVGGGKSSLAEKLKALMQQMPIYVLSANGQRSPVNDHPFCLFDVNEDGELLKQEYGIDRRYLRSIMSPWAAKRLHEFGGDITKFKVVKVRPSILDQIAVAKTEPGDENNQDISSLVGKVDIRKLEHFSQDDPDAYSYSGALCRANQGLMEFVEMFKAPIKVLHPLLTATQEGNYNGTEGLSALPFDGMILAHSNESEWQTFRNNKNNEAFLDRVYIVKVPYCLRVSEEVKIYQKLLDHSELSKAPCAPSTLDLLAQFSVLSRLKVPENSSLFSKMRVYDGETLKDTDPKAKSYQEYRDYAGVDEGMSGLSTRFAFKILSRVFNFDHSEVAANPVHLFYVIEQQVEREQFPQETADRYNEFLKGYLIPRYVEFIGKEIQTAYLESYSEYGQNIFDRYVTYADFWIQDQEYRDPETGQLFDRSALNSELEKIEKTAGISNPKDFRNEIVNFVLRARANNNGQNPVWTSYEKLRTVIEKKMFSNTEDLLPVISFNAKTSSDDQKKHDDFVARMMEKGYTEKQVRLLSEWYLRVRKSSEGHHHHHH	soluble
MSLSIISQIEACDFERLYEIEQQAHLVPWSFGTLKNNQGERYLNLKLIENNQIIGFAICQTVLDEATLFNIAILPTYQGCGFGKLLLGKLIFQLKEKGVQTLWLEVRESNSARFLYEKIGFNEVDIRKNYYPKPSGGRENAVVMACYLEGHHHHHH	not soluble
MSLSILNSNAALRGLLDQHLADLSREEGLAPETIRDAIERGTMVLLGNPSHPSLRPILVGQPARVKVNANIGTSPMRNHPECEMQKVDAAVEAGADTIMDLSIAGDLDAIRREMLARCPLPLGTVPLYSVAQKYIECGKDPALIDPEEIFAEIEKQAQQGVDFMTVHCGLTRRGAEWAAKGDRLLGIVSRGGSILARWMLRHDRENPLLTGYDRILDIARKYNVTLSLGDGLRPGAGADAGDAAQWEEVMVLGQLAKRGLEAGVQCMIEGPGHVPMNEVEAQIVGIKKLTHGAPLYVLGPLVIDSCPGYDHIAGAIGGALAVRSGVDFLCYLTPAEHLTLPTREDVRAGVIASRIAAQAGEVALGRPHALARELGMGKARKALDWPGMERHALDAAMVDERRGEHRNEEECAMCGKFCAVKMLRDDPQGAFEGHHHHHH	soluble
MSLSILQRLIQQAKNPRGTIGSSMLCIMNTAHTRLTNWALQKVHIKKDAIILDIGCGGGKTIHTLSKRTPLGKIYGIDYSYQAVKNSIQTNIKDVQKQKVIVQQASVSSIPYHTNFFDLITAFQTHYFWPDVEQDIKEVFRVLQPNGSFLLVAETFKIQYHMEKWKTNEELINLFYKTGFTSVKCYEERGCLCVIGTKEGHHHHHH	not soluble
